Measured values as given in article PMC8517284 (EBioMedicine, 2021).

Target: human integrin αvβ3 (R&D Systems, 3050-AV-050) (human, UniProt P06756 31-1048; P05106 27-718)
Assay: SPR

Kd: 2110 nM
B1: GFP-tagged full-length recombinant human D3 (1-304 aa), D3^FL (enzyme)
chain: MPRQATSRLVVGEGEGSQGASGPAATMLRSLLLHSLRLCAQTASCLVLFPRFLGTAFMLWLLDFLCIRKHFLGRRRRGQPEPEVELNSEGEEVPPDDPPICVSDDNRLCTLASLKAVWHGQKLDFFKQAHEGGPAPNSEVVLPDGFQSQHILDYAQGNRPLVLNFGSCTCPPFMARMSAFQRLVTKYQRDVDFLIIYIEEAHPSDGWVTTDSPYIIPQHRSLEDRVSAARVLQQGAPGCALVLDTMANSSSSAYGAYFERLYVIQSGTIMYQGGRGPDGYQVSELRTWLERYDEQLHGARPRRV
